Assay results from the supplement of paper PMC10567573.

B1: SOAT1 (parent)
chain: PSNGRIDIKQLIAKKIKLTAEAEE
B2: TRIM55 (parent)
chain: FQASNPYLPTRGGTTMASGGRFRC

Variants of: B1
Test: protein stability index of a GFP-peptide fusion (GPS, HEK-293T) (PSI 1-6); higher = more stable
Conditions: c terminus: a fixed tail appended
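Further: lentivirally expressed fusions sorted by FACS into six bins by GFP to DsRed ratio, PSI derived from sequencing read proportions per bin multiplied by bin number.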

Protein stability index of substitutions, site by site:
P1: R 3.35 | M 3.1 | K 3.04 | Q 3.23 | I 3.57 | G 3.33 | H 3.24 | S 3.46 | C 2.86 | N 3.14 | D 3.27 | L 3.06 | Y 3.62 | W 2.92 | F 3.22 | E 2.65 | V 2.98 | A 3.1 | T 3.64
G4: C 3.33 | T 3.49 | H 3.36 | E 4.39 | K 3.77 | W 2.85 | V 3.04 | D 4.92 | F 3.56 | A 3.77 | Q 3.57 | M 3.61 | L 3.48 | S 3.57 | Y 2.91 | N 3.76 | R 3.56 | I 3.18 | P 4.09
R5: G 4.04 | H 4 | S 3.75 | L 4.05 | M 3.55 | E 4.42 | W 3.48 | Q 3.13 | D 4.47 | Y 3.81 | K 3.68 | I 3.93 | P 4.16 | F 3.49 | N 3.94 | C 3.66 | T 4 | V 3.82 | A 3.95
I6: R 3.4 | K 3.74 | L 3.18 | P 3.37 | V 3.32 | A 3.79 | C 3.26 | G 4.1 | N 3.3 | E 4.06 | H 3.61 | S 3.46 | W 2.91 | F 2.83 | T 3.58 | D 4.4 | Q 3.76 | M 2.56 | Y 3.51
D7: L 3.38 | M 2.89 | C 3.12 | E 3.4 | P 3.23 | G 3.02 | K 3.14 | A 2.96 | F 2.83 | R 2.94 | N 3.33 | I 3.08 | H 3.65 | S 3.58 | Q 3.01
N3: C 3.86 | V 3.58 | Y 3.42 | L 3.46 | P 4.11 | Q 4.09 | H 4.32 | R 3.93 | D 4.38 | G 3.88 | E 4.27 | S 4.13 | F 3.55 | M 3.66 | K 3.96 | I 3.87 | W 3.45 | T 4.2 | A 4.25
S2: K 2.58 | M 3.11 | G 3.64 | D 4.03 | Q 3.63 | V 2.96 | W 2.88 | E 3.46 | H 3.01 | I 3.33 | P 3.35 | A 2.88 | R 3.08 | C 3.26 | N 3.61 | T 3.79 | L 3.09 | Y 2.88 | F 2.94

Variants of: B2
Test: as above
Conditions: c terminus: a fixed tail appended

Protein stability index: each site, then its substitutions
R23: P 2.91 | N 1.48 | C 2.9 | E 1.99 | Y 2.5 | A 2.37 | S 1.8 | G 1.6 | M 1.61 | L 2.98 | I 1.62 | Q 1.71 | V 1.88 | K 2.1 | H 1.56 | T 1.64 | F 1.51 | D 2.02
F22: Y 2.47
C24: Q 2.22 | D 2.6 | A 2.21 | S 1.43 | L 1.57 | M 1.37 | H 2.08 | P 1.41 | V 1.76 | W 1.94 | F 2.23 | T 2 | Y 1.62 | G 2.19 | R 1.5 | E 2.51 | N 3.51 | K 2.47 | I 2.03
